Where a chain is given by its changes, count along the chain named. Numbers in names are those of the source.
T1: Human CD3eg linker (human)
T1 construct: Single chain: epsilon and gamma subunits of human CD3 joined by a 29-mer linker, Flag-tag at the C-terminus; also called recombinant human CD3
T1 chain: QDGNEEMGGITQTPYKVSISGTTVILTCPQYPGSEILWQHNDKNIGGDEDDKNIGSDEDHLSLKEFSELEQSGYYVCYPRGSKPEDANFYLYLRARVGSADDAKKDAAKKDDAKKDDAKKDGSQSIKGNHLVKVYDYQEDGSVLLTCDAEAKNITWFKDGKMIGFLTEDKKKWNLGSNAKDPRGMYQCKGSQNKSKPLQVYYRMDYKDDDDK

B1: H183/L072 VL S26A (antibody, name in Kabat numbering, V domains shown)
VH: QVQLVESGGGLVQPGRSLRLSCAASGFTFSNAWMHWVRQAPGKGLEWVAQIKDKGNAYAAYYAPSVKGRFTISRDDSKNSIYLQMNSLKTEDTAVYYCHYVHYASASTVLPAFGVDAWGQGTTVTVSS
VL: DIVMTQSPLSLPVTPGEPASISCQAAQELVHMNRNTYLHWYQQKPGQAPRLLIYKVSNRFPGVPDRFSGSGSGTDFTLKISRVEAEDVGVYYCAQGTSVPFTFGQGTKLEIK
notes: Dual-Ig
B2: H183/L072 VL A25I (antibody, name in Kabat numbering, V domains shown)
VH: B1 VH
VL: B1 VL with A25I, A26S
notes: Dual-Ig
B3: H183/L072 VL A25G (antibody, name in Kabat numbering, V domains shown)
VH: B1 VH
VL: B1 VL with A25G, A26S
notes: Dual-Ig
B4: H183/L072 VH Y59K (antibody, name in Kabat numbering, V domains shown)
VH: B1 VH with Y62K
VL: B1 VL with A26S
B5: H183/L072 VH Y59A (antibody, name in Kabat numbering, V domains shown)
VH: B1 VH with Y62A
VL: B1 VL with A26S
B6: H183/L072 VH Y59W (antibody, name in Kabat numbering, V domains shown)
VH: B1 VH with Y62W
VL: B1 VL with A26S
B7: H183/L072 VH Y58V (antibody, name in Kabat numbering, V domains shown)
VH: B1 VH with Y61V
VL: B1 VL with A26S
B8: H183/L072 VH Y59Q (antibody, name in Kabat numbering, V domains shown)
VH: B1 VH with Y62Q
VL: B1 VL with A26S
B9: H183/L072 VH Y58K (antibody, name in Kabat numbering, V domains shown)
VH: B1 VH with Y61K
VL: B1 VL with A26S
B10: H183/L072 VH Y58N (antibody, name in Kabat numbering, V domains shown)
VH: B1 VH with Y61N
VL: B1 VL with A26S
B11: H183/L072 VH Y59S (antibody, name in Kabat numbering, V domains shown)
VH: B1 VH with Y62S
VL: B1 VL with A26S
B12: H183/L072 VH Y94P (antibody, name in Kabat numbering, V domains shown)
VH: B1 VH with Y100P
VL: B1 VL with A26S
B13: H183/L072 VH Y59P (antibody, name in Kabat numbering, V domains shown)
VH: B1 VH with Y62P
VL: B1 VL with A26S
B14: H183/L072 VH Y58T (antibody, name in Kabat numbering, V domains shown)
VH: B1 VH with Y61T
VL: B1 VL with A26S
B15: H183/L072 VH Y97P (antibody, name in Kabat numbering, V domains shown)
VH: B1 VH with Y103P
VL: B1 VL with A26S
B16: H183/L072 VH Y94A (antibody, name in Kabat numbering, V domains shown)
VH: B1 VH with Y100A
VL: B1 VL with A26S
B17: H183/L072 VH Y94L (antibody, name in Kabat numbering, V domains shown)
VH: B1 VH with Y100L
VL: B1 VL with A26S
B18: H183/L072 VH Y97A (antibody, name in Kabat numbering, V domains shown)
VH: B1 VH with Y103A
VL: B1 VL with A26S
B19: H183/L072 VH Y58W (antibody, name in Kabat numbering, V domains shown)
VH: B1 VH with Y61W
VL: B1 VL with A26S
B20: H183/L072 VH Y59G (antibody, name in Kabat numbering, V domains shown)
VH: B1 VH with Y62G
VL: B1 VL with A26S
B21: H183/L072 VH Y59I (antibody, name in Kabat numbering, V domains shown)
VH: B1 VH with Y62I
VL: B1 VL with A26S
B22: H183/L072 VH Y58S (antibody, name in Kabat numbering, V domains shown)
VH: B1 VH with Y61S
VL: B1 VL with A26S
B23: H183/L072 VH Y59T (antibody, name in Kabat numbering, V domains shown)
VH: B1 VH with Y62T
VL: B1 VL with A26S
B24: H183/L072 VH Y59E (antibody, name in Kabat numbering, V domains shown)
VH: B1 VH with Y62E
VL: B1 VL with A26S
B25: H183/L072 VH Y97I (antibody, name in Kabat numbering, V domains shown)
VH: B1 VH with Y103I
VL: B1 VL with A26S
B26: H183/L072 VH Y58M (antibody, name in Kabat numbering, V domains shown)
VH: B1 VH with Y61M
VL: B1 VL with A26S
B27: H183/L072 VH Y97M (antibody, name in Kabat numbering, V domains shown)
VH: B1 VH with Y103M
VL: B1 VL with A26S
B28: H183/L072 VH Y94I (antibody, name in Kabat numbering, V domains shown)
VH: B1 VH with Y100I
VL: B1 VL with A26S
B29: H183/L072 VH Y59N (antibody, name in Kabat numbering, V domains shown)
VH: B1 VH with Y62N
VL: B1 VL with A26S
B30: H183/L072 VH Y59D (antibody, name in Kabat numbering, V domains shown)
VH: B1 VH with Y62D
VL: B1 VL with A26S
B31: H183/L072 VH Y58L (antibody, name in Kabat numbering, V domains shown)
VH: B1 VH with Y61L
VL: B1 VL with A26S
B32: H183/L072 VH Y94M (antibody, name in Kabat numbering, V domains shown)
VH: B1 VH with Y100M
VL: B1 VL with A26S
B33: H183/L072 VH Y59F (antibody, name in Kabat numbering, V domains shown)
VH: B1 VH with Y62F
VL: B1 VL with A26S
B34: H183/L072 VH Y59L (antibody, name in Kabat numbering, V domains shown)
VH: B1 VH with Y62L
VL: B1 VL with A26S
B35: H183/L072 VH Y58P (antibody, name in Kabat numbering, V domains shown)
VH: B1 VH with Y61P
VL: B1 VL with A26S
B36: H183/L072 VH Y58R (antibody, name in Kabat numbering, V domains shown)
VH: B1 VH with Y61R
VL: B1 VL with A26S
B37: H183/L072 VH Y97L (antibody, name in Kabat numbering, V domains shown)
VH: B1 VH with Y103L
VL: B1 VL with A26S
B38: H183/L072 VH Y58Q (antibody, name in Kabat numbering, V domains shown)
VH: B1 VH with Y61Q
VL: B1 VL with A26S
B39: H183/L072 VH Y59R (antibody, name in Kabat numbering, V domains shown)
VH: B1 VH with Y62R
VL: B1 VL with A26S
B40: H183/L072 VH Y59H (antibody, name in Kabat numbering, V domains shown)
VH: B1 VH with Y62H
VL: B1 VL with A26S
B41: H183/L072 VH Y59V (antibody, name in Kabat numbering, V domains shown)
VH: B1 VH with Y62V
VL: B1 VL with A26S
B42: H183/L072 VH Y59M (antibody, name in Kabat numbering, V domains shown)
VH: B1 VH with Y62M
VL: B1 VL with A26S

These binders were tested against T2, Human CD137 ECD (human) (assay: Biacore SPR, vs parent H183/L072).
T2 construct: entry includes C-terminal His-tag and biotin acceptor peptide; also called human CD137 extracellular domain; 4-1BB
T2 sequence (chain, as listed by the source limits assumed): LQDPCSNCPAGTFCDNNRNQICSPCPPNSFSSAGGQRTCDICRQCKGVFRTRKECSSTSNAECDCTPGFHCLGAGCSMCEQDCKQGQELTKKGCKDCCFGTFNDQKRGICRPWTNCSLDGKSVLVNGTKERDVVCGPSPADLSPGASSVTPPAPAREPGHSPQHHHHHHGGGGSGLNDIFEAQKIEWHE

Binder | fold change of affinity [fold]
B1 | 0.8
B2 | 0.2
B3 | 0.7

Molecular target: T1, Human CD3eg linker
Experiment: Biacore SPR, vs template H183/L072

Binder | fold change of affinity [fold]
B4 | 1.3
B5 | 1
B6 | 0.6
B7 | 0.3
B8 | 1.1
B9 | 0.6
B10 | 0.5
B11 | 1.1
B12 | 0
B13 | 0.7
B14 | 0.2
B15 | 0
B16 | 0.4
B17 | 0.8
B18 | 0
B19 | 0
B20 | 1.1
B21 | 0.9
B22 | 0.4
B23 | 1.2

Binder | fold change of affinity [fold]
B24 | 1.1
B25 | 0
B26 | 0.4
B27 | 0
B28 | 0
B29 | 1.2
B30 | 1.1
B31 | 0.4
B32 | 0
B33 | 0.6
B34 | 1
B35 | 0.5
B36 | 0.5
B37 | 0
B38 | 0.3
B39 | 1.3
B40 | 1.4
B41 | 1.2
B42 | 1

From patent US20210388087A1 (Chugai, published 2021)
